Data from PMC3433420, “Comprehensive Binary Interaction Mapping of SH2 Domains via Fluorescence Polarization Reveals Novel Functional Diversification of ErbB Receptors” (PLoS ONE, 2012).
Several values for one entry are separate records, joined by “and”; a condition that tells them apart may be missing. Identical values can stand only once. Non-standard residues stand in square brackets, D forms with d. No end group written: not given here. pY = N[C@@H](Cc1ccc(OP(=O)(O)O)cc1)C(=O)O; Rhodamine = not defined here

Columns and labels:
Test in all cases: peptide or protein array; SH2/PTB proteins spotted on aldehyde slides, rhodamine peptide titrated in buffer B (20 mM HEPES, 100 mM KCl, 0.1% Tween-20, 5 mM DTT, pH 7.8), 1 h at room temperature; replicate assays
Settings in all cases: both partners purified
[1] = target: T1, PLCG2 N-terminal SH2 domain (human)
T1 construct: PLCG2, human; source: bacterial expression, purified
T1 sequence (P16885 whole entry, looked up): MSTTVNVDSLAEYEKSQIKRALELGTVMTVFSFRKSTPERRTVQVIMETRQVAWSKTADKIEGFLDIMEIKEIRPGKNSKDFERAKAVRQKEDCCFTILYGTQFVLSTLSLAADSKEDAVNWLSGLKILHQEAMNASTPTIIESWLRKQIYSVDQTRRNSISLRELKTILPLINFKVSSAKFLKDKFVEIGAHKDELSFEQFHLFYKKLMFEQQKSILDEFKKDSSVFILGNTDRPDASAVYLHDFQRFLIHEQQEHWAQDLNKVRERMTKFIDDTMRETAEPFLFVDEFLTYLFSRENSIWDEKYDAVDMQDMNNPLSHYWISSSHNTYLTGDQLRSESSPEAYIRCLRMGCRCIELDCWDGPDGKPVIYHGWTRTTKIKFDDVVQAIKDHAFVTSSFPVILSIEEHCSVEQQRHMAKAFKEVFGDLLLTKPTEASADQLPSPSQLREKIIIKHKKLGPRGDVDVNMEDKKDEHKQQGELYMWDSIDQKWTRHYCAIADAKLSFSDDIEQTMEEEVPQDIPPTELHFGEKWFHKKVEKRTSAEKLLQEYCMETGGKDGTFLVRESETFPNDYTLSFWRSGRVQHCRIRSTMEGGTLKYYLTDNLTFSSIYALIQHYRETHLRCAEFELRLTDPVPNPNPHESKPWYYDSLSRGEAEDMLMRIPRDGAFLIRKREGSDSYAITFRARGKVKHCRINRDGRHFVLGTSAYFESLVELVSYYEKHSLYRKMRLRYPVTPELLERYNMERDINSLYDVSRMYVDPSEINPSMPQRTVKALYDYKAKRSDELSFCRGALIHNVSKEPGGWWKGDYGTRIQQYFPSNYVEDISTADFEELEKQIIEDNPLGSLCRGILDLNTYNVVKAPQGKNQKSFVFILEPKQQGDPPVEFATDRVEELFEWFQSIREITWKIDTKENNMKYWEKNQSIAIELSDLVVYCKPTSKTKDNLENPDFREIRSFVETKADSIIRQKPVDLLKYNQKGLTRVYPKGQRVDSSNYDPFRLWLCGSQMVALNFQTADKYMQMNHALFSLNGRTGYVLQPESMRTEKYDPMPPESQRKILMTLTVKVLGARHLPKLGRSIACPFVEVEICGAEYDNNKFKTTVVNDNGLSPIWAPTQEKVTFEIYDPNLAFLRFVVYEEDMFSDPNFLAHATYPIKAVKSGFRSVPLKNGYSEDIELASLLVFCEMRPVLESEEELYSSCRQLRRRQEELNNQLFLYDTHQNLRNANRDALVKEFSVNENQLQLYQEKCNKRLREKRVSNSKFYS

BTK SH2 domain = target: T2, BTK SH2 domain (human, UniProt Q06187 281-377)
T2 construct: BTK, human; source: bacterial expression, purified
T2 sequence (Q06187 281-377): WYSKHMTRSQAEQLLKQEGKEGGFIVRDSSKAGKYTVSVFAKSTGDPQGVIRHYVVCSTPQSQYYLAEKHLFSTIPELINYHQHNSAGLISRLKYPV

[2] = target: T3, SYK N-terminal SH2 domain (human)
T3 construct: SYK, human; source: bacterial expression, purified

FGR SH2 domain = target: T4, FGR SH2 domain (human, UniProt P09769 144-241)
T4 construct: FGR, human; source: bacterial expression, purified

SHC1 domain construct = target: T5, SHC1 domain construct (human)
T5 chain: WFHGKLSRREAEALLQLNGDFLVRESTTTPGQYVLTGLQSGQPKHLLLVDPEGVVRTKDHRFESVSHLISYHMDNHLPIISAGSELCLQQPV

MATK SH2 domain = target: T6, MATK SH2 domain (human, UniProt P42679 122-211)
T6 construct: MATK, human; source: bacterial expression, purified
T6 sequence (looked up): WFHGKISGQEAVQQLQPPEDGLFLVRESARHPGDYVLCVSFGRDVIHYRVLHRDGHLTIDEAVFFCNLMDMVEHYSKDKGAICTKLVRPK

ZAP70 tandem SH2 domains = target: T7, ZAP70 tandem SH2 domains (human)
T7 construct: ZAP70, human; also called ZAP70-NC; source: bacterial expression, purified
T7 sequence (P43403 whole entry, the tested form may be a part): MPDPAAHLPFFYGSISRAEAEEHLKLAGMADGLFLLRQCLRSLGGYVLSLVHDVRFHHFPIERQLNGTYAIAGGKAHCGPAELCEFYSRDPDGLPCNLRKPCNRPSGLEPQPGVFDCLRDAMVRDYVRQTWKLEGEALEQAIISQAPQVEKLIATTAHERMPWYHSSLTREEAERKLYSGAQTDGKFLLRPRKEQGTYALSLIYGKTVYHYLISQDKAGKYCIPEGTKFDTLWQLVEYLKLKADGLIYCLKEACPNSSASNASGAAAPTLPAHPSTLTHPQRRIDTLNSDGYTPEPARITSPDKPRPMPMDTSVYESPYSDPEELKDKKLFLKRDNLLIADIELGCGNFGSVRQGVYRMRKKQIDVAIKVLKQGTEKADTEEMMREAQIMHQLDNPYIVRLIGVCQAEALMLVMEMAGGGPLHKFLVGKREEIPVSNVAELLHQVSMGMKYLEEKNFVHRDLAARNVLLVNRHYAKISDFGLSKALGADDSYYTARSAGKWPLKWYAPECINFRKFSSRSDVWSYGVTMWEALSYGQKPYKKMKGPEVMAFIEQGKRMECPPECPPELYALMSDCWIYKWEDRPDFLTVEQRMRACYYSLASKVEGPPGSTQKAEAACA

SH2D2A SH2 domain = target: T8, SH2D2A SH2 domain (human, UniProt Q9NP31 95-186)
T8 construct: SH2D2A, human; source: bacterial expression, purified
T8 sequence (Q9NP31 95-186): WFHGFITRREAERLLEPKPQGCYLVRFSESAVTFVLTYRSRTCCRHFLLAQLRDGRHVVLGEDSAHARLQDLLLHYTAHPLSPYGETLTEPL

PLCG2 tandem SH2 domains = target: T9, PLCG2 tandem SH2 domains (human)
T9 construct: PLCG2, human; also called PLCG2-NC; source: bacterial expression, purified
T9 sequence (P16885 whole entry, looked up): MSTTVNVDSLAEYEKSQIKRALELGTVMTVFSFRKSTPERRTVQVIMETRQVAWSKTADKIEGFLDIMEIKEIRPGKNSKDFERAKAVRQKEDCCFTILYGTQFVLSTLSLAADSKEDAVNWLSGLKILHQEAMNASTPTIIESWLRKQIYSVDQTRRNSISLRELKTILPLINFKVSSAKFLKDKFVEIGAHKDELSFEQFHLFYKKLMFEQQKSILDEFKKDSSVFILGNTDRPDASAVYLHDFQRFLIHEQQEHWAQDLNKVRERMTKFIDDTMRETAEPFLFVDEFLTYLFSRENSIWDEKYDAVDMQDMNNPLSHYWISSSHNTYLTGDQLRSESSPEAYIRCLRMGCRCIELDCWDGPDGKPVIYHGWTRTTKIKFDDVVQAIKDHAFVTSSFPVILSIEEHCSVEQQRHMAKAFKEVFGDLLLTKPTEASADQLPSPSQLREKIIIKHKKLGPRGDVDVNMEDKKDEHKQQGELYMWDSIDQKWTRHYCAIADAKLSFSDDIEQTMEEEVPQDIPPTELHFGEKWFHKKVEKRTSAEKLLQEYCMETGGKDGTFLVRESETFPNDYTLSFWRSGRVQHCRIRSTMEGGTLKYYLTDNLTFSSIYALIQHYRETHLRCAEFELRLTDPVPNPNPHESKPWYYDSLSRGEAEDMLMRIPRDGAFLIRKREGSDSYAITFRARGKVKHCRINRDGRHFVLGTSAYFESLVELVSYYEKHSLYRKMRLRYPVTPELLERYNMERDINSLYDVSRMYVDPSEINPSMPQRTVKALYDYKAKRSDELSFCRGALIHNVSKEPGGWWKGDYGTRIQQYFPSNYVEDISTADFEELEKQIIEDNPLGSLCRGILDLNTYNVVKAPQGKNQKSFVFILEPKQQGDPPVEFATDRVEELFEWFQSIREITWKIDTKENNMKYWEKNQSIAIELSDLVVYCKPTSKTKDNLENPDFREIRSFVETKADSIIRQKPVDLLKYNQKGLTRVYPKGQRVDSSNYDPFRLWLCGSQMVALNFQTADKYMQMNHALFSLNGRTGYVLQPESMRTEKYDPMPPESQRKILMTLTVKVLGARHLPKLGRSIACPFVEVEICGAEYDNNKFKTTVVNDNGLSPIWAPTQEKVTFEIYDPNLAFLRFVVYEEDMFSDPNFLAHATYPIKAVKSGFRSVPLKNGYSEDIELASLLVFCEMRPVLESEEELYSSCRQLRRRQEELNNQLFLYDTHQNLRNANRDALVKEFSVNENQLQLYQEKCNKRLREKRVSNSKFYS

Rhodamine-ETDG[pY]VAPLTCSD (reading uncertain) [ErbB2 pY1127 phosphopeptide, rhodamine-labelled, for protein microarrays]
Kd [1]: 4.16 µM
Kd (BTK SH2 domain): 4.71 µM and 5.89 µM
Kd [2]: 3.21 µM and 2.33 µM
Kd (FGR SH2 domain): 5.18 µM
Kd (SHC1 domain construct): 0.82 µM and 0.978 µM
Kd (MATK SH2 domain): 4.4 µM
Kd (ZAP70 tandem SH2 domains): 2.01 µM and 2.41 µM
Kd (SH2D2A SH2 domain): 2.75 µM
Kd (PLCG2 tandem SH2 domains): 0.578 µM and 1.6 µM
